One molecule from US20110217695A1 can be followed below.

The target in this experiment is IGF1R (on MCF-7 cells) (UniProt P08069). Briefly: cell-based or functional assay.
Sequence of UniProt P08069 (P08069 31-1367 limits assumed): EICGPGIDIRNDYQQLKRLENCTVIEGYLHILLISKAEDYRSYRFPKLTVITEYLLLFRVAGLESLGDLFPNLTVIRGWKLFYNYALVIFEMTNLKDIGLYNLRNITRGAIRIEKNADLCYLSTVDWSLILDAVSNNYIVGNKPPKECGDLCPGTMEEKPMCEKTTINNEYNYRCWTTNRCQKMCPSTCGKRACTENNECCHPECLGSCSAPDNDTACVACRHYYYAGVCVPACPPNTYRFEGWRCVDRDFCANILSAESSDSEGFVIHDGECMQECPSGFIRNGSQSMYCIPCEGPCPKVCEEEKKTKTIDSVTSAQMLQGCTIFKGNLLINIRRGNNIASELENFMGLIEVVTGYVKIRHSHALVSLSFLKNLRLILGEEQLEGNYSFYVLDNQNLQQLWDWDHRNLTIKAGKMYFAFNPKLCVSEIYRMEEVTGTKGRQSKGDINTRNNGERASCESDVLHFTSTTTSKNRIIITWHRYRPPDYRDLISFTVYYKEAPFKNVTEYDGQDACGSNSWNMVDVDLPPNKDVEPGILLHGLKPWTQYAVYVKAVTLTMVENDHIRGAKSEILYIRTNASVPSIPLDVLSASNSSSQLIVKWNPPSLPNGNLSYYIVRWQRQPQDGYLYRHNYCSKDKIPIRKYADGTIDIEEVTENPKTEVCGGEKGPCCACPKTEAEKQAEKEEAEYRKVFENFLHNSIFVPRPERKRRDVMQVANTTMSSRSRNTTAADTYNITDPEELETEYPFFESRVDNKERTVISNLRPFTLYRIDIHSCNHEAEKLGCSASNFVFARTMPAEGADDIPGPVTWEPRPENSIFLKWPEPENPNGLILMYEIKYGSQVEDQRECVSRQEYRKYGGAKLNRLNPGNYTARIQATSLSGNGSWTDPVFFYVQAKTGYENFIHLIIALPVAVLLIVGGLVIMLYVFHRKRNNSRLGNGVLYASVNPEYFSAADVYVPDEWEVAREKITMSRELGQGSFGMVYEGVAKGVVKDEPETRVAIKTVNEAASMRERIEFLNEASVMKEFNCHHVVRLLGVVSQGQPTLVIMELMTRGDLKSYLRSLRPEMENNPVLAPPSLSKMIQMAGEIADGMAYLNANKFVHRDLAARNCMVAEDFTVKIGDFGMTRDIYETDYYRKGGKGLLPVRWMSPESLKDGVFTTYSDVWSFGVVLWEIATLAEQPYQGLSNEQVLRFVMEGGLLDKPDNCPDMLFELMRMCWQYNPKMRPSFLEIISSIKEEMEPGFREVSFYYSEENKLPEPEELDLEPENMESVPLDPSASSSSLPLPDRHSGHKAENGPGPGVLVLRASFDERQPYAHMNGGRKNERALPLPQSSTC

B1: 19D12 antibody (purified antibody obtained from 19D12 hybridoma) (antibody, from a related filing, V domains shown)
VH: EVQLVQSGGGLVHPGGSLRLSCAASGFTFSSFAMHWVRQAPGKGLEWISVIDTRGATYYADSVKGRFTISRDNAKNSLYLQMNSLRAEDMAVYYCARLGNFYYGMDVWGQGTTVTVSS
VL: EIVLTQVPDFQSVTPKEKVTITCRASQSIGSSLHWYQQKPDQSPKLLIKYASQSLSGVPSRFSGSGSGTDFTLTINSLEAEDAAAYYCHQSSRLPHTFGGGTKVEIKR
Take B1: the % Inhibition, KIRA assay (IGF-I-stimulated receptor phosphorylation in MCF-7 cells), at 0.01 nM Ab (first row) was -3.26%; the % Inhibition, KIRA assay (IGF-I-stimulated receptor phosphorylation in MCF-7 cells), at 0.01 nM Ab (second row) is -0.34%; the % Inhibition, KIRA assay (IGF-I-stimulated receptor phosphorylation in MCF-7 cells), at 0.03 nM Ab was -3.18%; the % Inhibition, KIRA assay (IGF-I-stimulated receptor phosphorylation in MCF-7 cells), at 0.05 nM Ab was found to be 0.87%. Further, the % Inhibition, KIRA assay (IGF-I-stimulated receptor phosphorylation in MCF-7 cells), at 0.10 nM Ab was 3.82%; the % Inhibition, KIRA assay (IGF-I-stimulated receptor phosphorylation in MCF-7 cells), at 0.21 nM Ab amounted to 10.1%; the % Inhibition, KIRA assay (IGF-I-stimulated receptor phosphorylation in MCF-7 cells), at 0.42 nM Ab was determined as 18%; the % Inhibition, KIRA assay (IGF-I-stimulated receptor phosphorylation in MCF-7 cells), at 0.83 nM Ab is 39.4%. Moreover, the % Inhibition, KIRA assay (IGF-I-stimulated receptor phosphorylation in MCF-7 cells), at 1.67 nM Ab worked out at 40.5%; the % Inhibition, KIRA assay (IGF-I-stimulated receptor phosphorylation in MCF-7 cells), at 3.34 nM Ab came out at 54.6%; the % Inhibition, KIRA assay (IGF-I-stimulated receptor phosphorylation in MCF-7 cells), at 6.67 nM Ab was 69.6%.
